This note sets out measurements from US20240109974A1 (SHANDONG SIMCERE BIOPHARMACEUTICAL, published 2024).

Experiment [1] has as its target T1, Human TNFR2-His (Sino 10417-H08H) (human, UniProt P20333 23-257).
T1 construct: Bought protein; also called recombinant human TNFR2 protein; not shown: His tag
T1 sequence (looked up): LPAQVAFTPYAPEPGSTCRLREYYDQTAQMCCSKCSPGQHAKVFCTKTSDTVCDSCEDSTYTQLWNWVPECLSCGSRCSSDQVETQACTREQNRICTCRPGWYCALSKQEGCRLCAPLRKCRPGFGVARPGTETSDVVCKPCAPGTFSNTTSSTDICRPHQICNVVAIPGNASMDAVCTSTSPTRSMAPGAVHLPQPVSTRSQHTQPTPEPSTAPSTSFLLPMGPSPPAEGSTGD
Put plainly: ELISA, plate coated with Human TNFR2-His, detection with anti-human IgG Fc-HRP [panel A]. How it is done: The test humanized antibody against TNFR2 (as described in Example 1, the antibody was comprised of variable regions linked to IgG-Fc; the WT chimeric antibody also adopted the IgG-Fc structure) was subjected to 3.33-fold gradient dilution, loaded with 100 μl/well, and incubated with shaking at room temperature for 1.5 hours. The plate was washed, and then a working solution of murine anti-human IgG Fc-HRP (diluted at 1:10000) was added, loaded with 100 μl/well, and incubated with shaking at room temperature for 1.0 hour. The plate was washed again, and then the substrate TMB of HRP was added to develop colour. A stop solution was added to stop the reaction, and then a microplate reader (MD 13) was used to read the absorbance value. The binding curve of an antibody was drawn with antibody concentration as the abscissa and corresponding OD value as the ordinate, and fitted with four parameters (GraphPad Prism9) to calculate the EC50 value. The smaller the EC50 value, the stronger the binding ability of an antibody to human/cynomolgus monkey TNFR2. The binding effect of a humanized antibody was normalized to its corresponding human-murine chimeric antibody WT (see SEQ ID NOs: 38-43 for the sequence). The higher the percentage value, the better the binding effect of the humanized antibody. […]

In experiment [2] the target is T2, human TNFR2 (Novoprotein, Cat #C830) (human, UniProt P20333 23-257, limits assumed).
T2 construct: construct not described; also called human TNFR2 protein
T2 sequence (looked up): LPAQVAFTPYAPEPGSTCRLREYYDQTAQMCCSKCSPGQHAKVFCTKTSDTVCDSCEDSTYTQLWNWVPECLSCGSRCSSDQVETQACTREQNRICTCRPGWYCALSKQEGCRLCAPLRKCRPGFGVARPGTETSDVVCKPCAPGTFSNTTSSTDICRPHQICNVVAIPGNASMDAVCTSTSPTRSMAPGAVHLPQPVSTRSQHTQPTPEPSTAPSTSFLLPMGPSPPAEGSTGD
Put plainly: competition ELISA: antibody titrated against human TNFα-Biotin on coated human TNFR2 (Novoprotein), detection with Streptavidin-HRP [panel B]. How it is done: 1 μg/ml human TNFR2 (Novoprotein, Cat #C830) was pre-coated with 100 μl/well […] in an ELISA plate. All the test TNFR2 antibodies were subjected to 2.5-fold gradient dilution from the highest concentration of 30 μg/ml; the diluted antibodies were mixed with 15 ng/ml human TNFα-Biotin (Acro Biosystem, Cat #TNA-H82E3) in equal volume, respectively; the resulting mixture was added to the ELISA plate at 100 μl/well, and incubated with shaking at room temperature for 2.0 hours. The plate was washed, and then a Streptavidin-HRP working solution (diluted at 1:10000) was added at 100 μl/well, and the mixture was incubated with shaking at room temperature for 40 minutes. The plate was washed again, and then the substrate TMB of HRP was added to develop colour. A stop solution was added to stop the reaction, and then a microplate reader (MD 13) was used to read the absorbance value. The inhibitory curve of an antibody was drawn with antibody concentration as the abscissa and corresponding OD value as the ordinate, and fitted with four parameters (GraphPad Prism9) to calculate the IC50 value. The smaller the IC50 value, the stronger the ability of an antibody to inhibit the binding of human TNFα to human TNFR2. The blocking effect of a humanized antibody was normalized to its corresponding human-murine chimeric antibody WT. […]
On the technique in general: An ELISA detects its analyte on a solid surface through an enzyme-linked reagent.

B1: 001-WT (antibody, V domains shown)
VH: EVQLQESGGGLVQPGGSLNLSCAASGFAFSTYDLSWVRQTPEKRLEWVAYINNGGISTYYSDTVKGRFTISRDNAKNTLYLQMSSLKSEDTAMYYCVRGPFYGSANYFDYWGQGTTVTVSS
VL: EIVMTQSPASLSLSVGETVTITCRTSESIYSNLPWYQQKQGKSPQLLVYDATKLAEGVPSRFSGSESGTQYSLKINSLQSEDFGTYYCQHFWVTPWTFGGGTKLEIK
notes: Human-murine chimeric wild-type molecule; also called human-murine chimeric antibody WT of #001
In the case of B1, the concentration for a half-maximal effect (EC50 (read off the curve)) (in general, the concentration at which the effect is half-maximal) in experiment [1] is roughly 0.01 µg/mL.

B2: 219-WT (antibody, V domains shown)
VH: EVQLQESGAELVRPGASVKLSCKASGYSFTNYWMNWVKQRPGQGLEWIGMIHPSDTETRLNQNFKDKATLTVDKSSSTSYMQLSSPTSEDSAVYYCARGEGLGAARSVSMDYWGQGTTVTVSS
VL: DILMTQSPSSLSASLGDRVTISCRASQDISNYLNWYQQKPDGTVKVLIYYTAILHSGVPSRFSGSGSGTDYSLTISNLEQEDIATYFCQQGNTLPWTFGGGTKLEIK
notes: Human-murine chimeric wild-type molecule
Turning to B2, in experiment [2], the “IC50 (read off the curve)” value was roughly 0.6 µg/mL.
